# Patent US20210002644, “ANTI-CHYMASE APTAMER AND USE FOR SAME” (RIBOMIC INC., published 2021)
# T1: chymase (native, human skin mast cell) (Homo sapiens, UniProt P23946 P23946:22-247)
# T1 sequence: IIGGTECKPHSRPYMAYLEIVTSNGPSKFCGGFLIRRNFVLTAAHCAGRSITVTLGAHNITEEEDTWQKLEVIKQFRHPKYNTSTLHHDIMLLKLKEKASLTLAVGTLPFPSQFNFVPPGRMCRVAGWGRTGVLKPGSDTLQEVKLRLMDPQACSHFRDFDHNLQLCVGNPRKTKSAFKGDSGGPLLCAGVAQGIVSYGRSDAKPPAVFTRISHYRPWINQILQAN
# B1: SEQ ID NO: 33(1) (mixed)
# RNA: AUGAUCGGACAUAACUAAUUAGGGGUGUCAA
# modifications: idT-A(M)U(M)G(M)A(M)U(F)C(F)G(M)G(M)A(M)C(M)A(M)U(M)AAC(M)U(F)AAU(F)U(M)AG(M)GG(M)G(M)TG(M)U(M)C(M)A(M)A(M)-idT (F=2'-F, M=2'-OMe)
# B2: SEQ ID NO: 33(10) (mixed)
# RNA: B1 RNA
# modifications: idT-A(M)U(M)G(M)A(M)U(F)C(F)G(M)G(M)A(M)C(M)A(M)U(M)AAC(M)TA(M)A(M)U(M)U(M)A(M)G(M)GG(M)G(M)TG(M)U(M)C(M)A(M)A(M)-idT (F=2'-F, M=2'-OMe)
# B3: SEQ ID NO: 33(2) (mixed)
# RNA: B1 RNA
# modifications: idT-A(M)U(M)G(M)A(M)U(F)C(F)G(M)G(M)A(M)C(F)A(M)U(M)AAC(M)U(F)AAU(F)U(M)AG(M)GG(M)G(M)TG(M)TC(M)A(M)A(M)-idT (F=2'-F, M=2'-OMe)
# B4: SEQ ID NO: 33(16) (mixed)
# RNA: B1 RNA
# modifications: idT-A(M)U(M)G(M)A(M)U(F)C(F)G(M)G(M)A(M)C(M)A(M)U(M)AAC(M)U(F)A(M)A(M)U(M)U(M)A(M)G(M)GG(M)G(M)T(M)G(M)U(M)C(M)A(M)A(M)-idT (F=2'-F, M=2'-OMe)
# B5: SEQ ID NO: 33(4) (mixed)
# RNA: B1 RNA
# modifications: idT-A(PHE)U(M)G(M)A(M)U(F)C(F)G(M)G(M)A(M)C(F)A(M)U(M)AAC(M)U(F)A(M)A(M)U(F)U(M)A(M)G(M)GG(M)G(M)TG(M)TC(M)A(M)A(M)-idT (F=2'-F, M=2'-OMe, PHE=8-(propyl)phenyl-rA; printed 1J(F) read as U(F))
# B6: SEQ ID NO: 33(8) (mixed)
# RNA: B1 RNA
# modifications: idT-A(M)U(M)G(M)A(M)U(F)C(F)G(M)G(M)A(M)C(M)A(M)U(M)AA(M)C(M)U(F)A(M)A(M)U(M)U(M)A(M)G(M)GG(M)G(M)TG(M)U(M)C(M)A(M)A(M)-idT (F=2'-F, M=2'-OMe)
# B7: SEQ ID NO: 33(3) (mixed)
# RNA: B1 RNA
# modifications: idT-A(PHE)U(M)G(M)A(M)U(F)C(F)G(M)G(M)A(M)C(M)A(M)U(M)AAC(M)U(F)A(M)A(M)U(F)U(M)A(M)G(M)GG(M)G(M)TG(M)U(M)C(M)A(M)A(M)-idT (F=2'-F, M=2'-OMe, PHE=8-(propyl)phenyl-rA)
# B8: SEQ ID NO: 33(17) (mixed)
# RNA: B1 RNA
# modifications: idT-A(PHE)U(M)G(M)A(M)U(F)C(F)G(M)G(M)A(M)C(M)A(M)U(M)AAC(M)U(F)A(M)A(M)U(M)U(M)A(M)G(M)GG(M)G(M)TG(M)U(M)C(M)A(M)A(M)-idT (F=2'-F, M=2'-OMe, PHE=8-(propyl)phenyl-rA)
# B9: SEQ ID NO: 33(7) (mixed)
# RNA: B1 RNA
# modifications: idT-A(M)U(M)G(M)A(M)U(F)C(F)G(M)G(M)A(M)C(M)A(M)U(M)A(M)AC(M)U(F)A(M)A(M)U(M)U(M)A(M)G(M)GG(M)G(M)TG(M)U(M)C(M)A(M)A(M)-idT (F=2'-F, M=2'-OMe)
# B10: SEQ ID NO: 33(6) (mixed)
# RNA: B1 RNA
# modifications: idT-A(M)U(M)G(M)A(M)U(F)C(F)G(M)G(M)A(M)C(F)A(M)U(M)AAC(M)U(F)A(M)A(M)U(M)U(M)A(M)G(M)GG(M)G(M)TG(M)U(M)C(M)A(M)A(M)-idT (F=2'-F, M=2'-OMe)
# B11: SEQ ID NO: 33(5) (mixed)
# RNA: B1 RNA
# modifications: idT-A(PHE)U(M)G(M)A(M)U(F)C(F)G(M)G(M)A(M)C(F)A(M)U(M)AAC(M)U(F)A(M)A(M)U(F)U(M)A(M)G(M)GG(M)G(M)TG(M)U(M)C(M)A(M)A(M)-idT (F=2'-F, M=2'-OMe, PHE=8-(propyl)phenyl-rA)
# B12: SEQ ID NO: 33(11) (mixed)
# RNA: B1 RNA
# modifications: idT-A(M)U(M)G(M)A(M)U(F)C(F)G(M)G(M)A(M)C(M)A(M)U(M)AAC(M)U(F)A(M)A(M)TU(M)A(M)G(M)GG(M)G(M)TG(M)U(M)C(M)A(M)A(M)-idT (F=2'-F, M=2'-OMe)
# B13: SEQ ID NO: 33(13) (mixed)
# RNA: B1 RNA
# modifications: idT-A(M)U(M)G(M)A(M)U(F)C(F)G(M)G(M)A(M)C(M)A(M)U(M)AAC(M)T(M)A(M)A(M)U(M)U(M)A(M)G(M)GG(M)G(M)TG(M)U(M)C(M)A(M)A(M)-idT (F=2'-F, M=2'-OMe)
# B14: SEQ ID NO: 33(12) (mixed)
# RNA: B1 RNA
# modifications: idT-A(M)U(M)G(M)A(M)U(F)C(F)G(M)G(M)A(M)C(M)A(M)U(M)AAC(M)U(F)A(M)A(M)U(M)TA(M)G(M)GG(M)G(M)TG(M)U(M)C(M)A(M)A(M)-idT (F=2'-F, M=2'-OMe)
# B15: SEQ ID NO: 33(15) (mixed)
# RNA: B1 RNA
# modifications: idT-A(M)U(M)G(M)A(M)U(F)C(F)G(M)G(M)A(M)C(M)A(M)U(M)AAC(M)U(F)A(M)A(M)U(M)T(M)A(M)G(M)GG(M)G(M)TG(M)U(M)C(M)A(M)A(M)-idT (F=2'-F, M=2'-OMe)
# B16: SEQ ID NO: 33(14) (mixed)
# RNA: B1 RNA
# modifications: idT-A(M)U(M)G(M)A(M)U(F)C(F)G(M)G(M)A(M)C(M)A(M)U(M)AAC(M)U(F)A(M)A(M)T(M)U(M)A(M)G(M)GG(M)G(M)TG(M)U(M)C(M)A(M)A(M)-idT (F=2'-F, M=2'-OMe)
# Target: T1, chymase (native, human skin mast cell)
# Experiment: inhibition; angiotensin I substrate
# Settings: tags: Calbiochem Human Skin
# Method: (§1) The total volume of solution for an enzyme reaction in the assay was set to 50 μL, and the reaction was performed in solution C buffer. At first, native (manufactured by Calbiochem) was diluted with solution C to give 5 μL thereof. Here, the native is chymase purified from human skin mast cell. The nucleic acid was serially diluted with solution C at a concentration of 0.0027-2 μM to give 25 μL thereof. The chymase solution (5 μL) and the nucleic acid solution (25 μL) were mixed, and the mixture was incubated at 37° C. for 5 min. On the other hand, […] angiotensin I (manufactured by PEPTIDE […], INC.) was prepared in solution C to give 20 μL thereof, which was incubated at 37° C. for 5 min. The angiotensin I solution was added to a mixture of chymase and nucleic acid to start an enzyme reaction. The final chymase concentration of the reaction solution was 0.5 nM, and the final substrate concentration was 50 μM. After reaction at 37° C. for 90 min, ice-cooled 30% trichloroacetic acid solution (25 μL) was added to quench the reaction. The whole mixture was centrifuged at 4° C., 14000 rpm for 10 min, and the supernatant (30 μL) was used for the next fluorescence induction reaction.
# (§2) The above-mentioned supernatant (30 μL) was added to a 96 well plate (black, manufactured by Costar), a solution (15 μL) of 2% o-phthalaldehyde (manufactured by SIGMA) in methanol and 0.3M NaOH solution (170 μL) were added to each well, and the mixture was incubated at room temperature for 10 min. Then, 3M HCl solution (25 μL) was added to quench the reaction. The plate was set on a microplate reader SpectraMax190 (manufactured by Molecular device) and the fluorescence intensity was measured at an excitation wavelength of 355 nm and a fluorescence wavelength of 460 nm.
# The nucleic acids of SEQ ID NO: 11-20 were all produced by chemical synthesis. In the evaluation of SEQ ID NO: 11-20, a method similar to the evaluation method of inhibitory activity against chymase shown in Example 1 by using angiotensin I as a substrate was used for measurement. […] The IC₅₀ value is a mean of 2 or 3 measurements.
row,Binder,IC50 [nM]
1,"GGCAGAUGAUCGGACAUAACAUUGUUGGGGUGUCAAGCC (ssRNA, 2'-F pyrimidines (U, C); purines 2'-OH) [SEQ ID NO: 14]",6.8
2,"GAUGAUCGGACAUAACAUUGUUGGGGUGUCA (ssRNA, 2'-F pyrimidines (U, C); purines 2'-OH) [SEQ ID NO: 20]",1.8
3,"GAUGAUCGGACAUAACAUUGUUGGGGUGUCAA (ssRNA, 2'-F pyrimidines (U, C); purines 2'-OH) [SEQ ID NO: 17]",1.4
4,"AUCGGACAUAACAUUGUUGGGGUGUCAA (ssRNA, 2'-F pyrimidines (U, C); purines 2'-OH) [SEQ ID NO: 19]",14.4
5,"GGCAGAUGAUCGGACAUAACAUUGUUGGGGUGUCAA (ssRNA, 2'-F pyrimidines (U, C); purines 2'-OH) [SEQ ID NO: 16]",2
6,"GGGUCAGAUGAUCGGACAUAACAUUGUUGGGGUGUCAAGGCCC (ssRNA, 2'-F pyrimidines (U, C); purines 2'-OH) [SEQ ID NO: 11]",54.7

# Target: T1, chymase (native, human skin mast cell)
# Experiment: inhibition; angiotensin I substrate
# Settings: tags: Calbiochem Human Skin
# Remark: another data set of the same source
# Method: as §1, §2
# All nucleic acids of SEQ ID NO: 33(1)-33(18) were prepared by chemical synthesis. The aptamers shown by these sequences were measured by a method similar to the inhibitory activity evaluation method for chymase inhibitory activity shown in Example 1 by using angiotensin I as a substrate. In the Table, the IC₅₀ value is a mean of 2 or 3 measurements.
row,Binder,IC50 [nM]
1,B1,0.074
2,B2,0.071
3,B3,0.078
4,B4,0.063
5,B5,0.072
6,B6,0.061
7,B7,0.071
8,B8,0.038
9,B9,0.071
10,B10,0.053
11,B11,0.076
12,B12,0.051
13,B13,0.069
14,B14,0.048
15,B15,0.072
16,B16,0.075
